Experiments:
[1] = biological target: endogenous P-TEFb complex (positive transcription elongation factor b) (UniProt P50750); assay: cell-based or functional assay
[2] = biological target: endogenous P-TEFb complex (positive transcription elongation factor b) (UniProt P50750); assay: GST pull-down of endogenous P-TEFb from cell extract, read out by the Tat-associated kinase assay

Chain of UniProt P50750 (P50750 whole entry, chain 1 of 2): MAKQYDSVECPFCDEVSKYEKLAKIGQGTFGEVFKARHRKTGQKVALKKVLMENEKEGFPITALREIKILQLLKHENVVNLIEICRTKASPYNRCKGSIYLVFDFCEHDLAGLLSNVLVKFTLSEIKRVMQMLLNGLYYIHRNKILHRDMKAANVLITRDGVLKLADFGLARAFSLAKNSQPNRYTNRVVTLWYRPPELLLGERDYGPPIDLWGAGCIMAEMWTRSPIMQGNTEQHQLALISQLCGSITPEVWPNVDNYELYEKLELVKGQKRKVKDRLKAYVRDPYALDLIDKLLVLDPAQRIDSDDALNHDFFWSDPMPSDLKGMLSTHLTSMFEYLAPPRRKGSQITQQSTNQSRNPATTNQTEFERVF
Chain of UniProt P50750 (O60563 whole entry, chain 2 of 2, further chain): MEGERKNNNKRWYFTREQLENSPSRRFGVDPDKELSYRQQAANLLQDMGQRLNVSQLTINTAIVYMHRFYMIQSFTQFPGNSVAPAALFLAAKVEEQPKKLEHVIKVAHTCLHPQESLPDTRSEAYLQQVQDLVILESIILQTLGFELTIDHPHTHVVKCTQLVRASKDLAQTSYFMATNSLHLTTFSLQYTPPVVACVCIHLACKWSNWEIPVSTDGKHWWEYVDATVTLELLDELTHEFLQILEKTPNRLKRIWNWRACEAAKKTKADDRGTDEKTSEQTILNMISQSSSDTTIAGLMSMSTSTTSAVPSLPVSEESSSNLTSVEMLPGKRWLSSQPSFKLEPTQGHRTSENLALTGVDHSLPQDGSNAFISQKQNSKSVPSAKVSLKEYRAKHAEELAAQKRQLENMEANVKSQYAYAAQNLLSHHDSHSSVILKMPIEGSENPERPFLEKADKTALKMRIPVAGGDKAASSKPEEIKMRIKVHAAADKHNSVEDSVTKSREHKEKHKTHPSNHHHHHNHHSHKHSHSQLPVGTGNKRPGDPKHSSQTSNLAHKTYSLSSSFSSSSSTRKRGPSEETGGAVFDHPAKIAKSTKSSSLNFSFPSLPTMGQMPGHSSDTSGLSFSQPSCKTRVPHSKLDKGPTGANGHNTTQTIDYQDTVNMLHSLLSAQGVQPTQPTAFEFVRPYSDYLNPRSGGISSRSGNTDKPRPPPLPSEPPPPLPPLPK

For “GST-Tat T23N (1-72) (from UniProt P04608 1-72)”, the extent of CTD phosphorylation (Tat-associated kinase assay after GST pull-down; U937 or 293 cell extract) (fold over wild-type Tat) [1] was 3.5 and the fold stronger binding than wild-type Tat [2] was 3.5 fold.
